Data reported in patent publication US9963506B2, “Human-mouse chimeric anti-CD147 antibody with non-fucosylated glycosylation” (Fourth Military Medical University, priority 2015, dated 2018).

Target: T1, CD147 (Homo sapiens, UniProt P35613)
T1 construct: FFPE tissue sections from a selected panel of human cancer tissue arrays; tissue Chaoying Biotechnology Co., LTD, China; host or cells: human cancer tissue arrays (lung, ovarian, stomach, esophagus, breast, cervical, liver, colon cancer), FFPE
T1 sequence (P35613 22-269 isoform P35613-2 limits assumed): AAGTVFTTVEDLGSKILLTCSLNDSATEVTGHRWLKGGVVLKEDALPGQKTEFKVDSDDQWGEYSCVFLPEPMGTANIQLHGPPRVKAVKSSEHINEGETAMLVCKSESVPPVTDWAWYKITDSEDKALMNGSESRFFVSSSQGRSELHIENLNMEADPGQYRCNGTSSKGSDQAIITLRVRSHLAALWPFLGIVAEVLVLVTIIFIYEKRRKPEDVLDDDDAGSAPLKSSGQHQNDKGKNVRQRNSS
Experiment: Immunohistochemical detection of CD147 in human cancer tissue arrays (tissue cross reactivity)
Assay type: binding
Experimental: To test the specificity of Metuzumab (HcHAb18), tissue cross reactivity of Metuzumab was evaluated in FFPE tissue sections from a selected panel of human cancer tissue arrays (Chaoying Biotechnology Co., LTD, China.). Slides were microwaved for 10 min in 10 mM sodium citrated (pH 6.0), cooled for 30 min at 25° C. After incubating for 10 min in 3% H2O2 to block endogenous peroxidase, and blocking for 1 hr in 10% goat serum, slides were incubated overnight in a humidity chamber with biotinylated Metuzumab (30 μg/ml). Binding was visualized with streptavidin-conjugated peroxidase (ZsBio, China) and DAB detection system (ZsBio, China). Sections were analyzed using a bright-field microscope. The staining results were evaluated by 2 experienced pathologist in a blinded manner and classified into four categories: of 0 (no visible staining), 1+ (light brown), 2+ (mid-brown), and 3+ (dark brown), respectively, with the same intensity covering more than 75% of the staining area.

Positive rate (Colon cancer): 82.00%
Sensitivity response rate (Colon cancer): 82.00%
Specificity (Colon cancer): 84.00%
Tumor tissues specifically bound (positive/total) (Colon cancer): 41/50
Staining level 0 (no visible staining), number of tissues (Colon cancer, number 50): 9
Staining level 1+ (light brown), number of tissues (Colon cancer, number 50): 8
Staining level 2+ (mid-brown), number of tissues (Colon cancer, number 50): 26
Staining level 3+ (dark brown), number of tissues (Colon cancer, number 50): 7
Positive rate (Esophagus cancer): 93.75%
Sensitivity response rate (Esophagus cancer): 93.75%
Specificity (Esophagus cancer): 81.25%
Tumor tissues specifically bound (positive/total) (Esophagus cancer): 30/32
Staining level 0 (no visible staining), number of tissues (Esophagus cancer, number 32): 2
Staining level 1+ (light brown), number of tissues (Esophagus cancer, number 32): 6
Staining level 2+ (mid-brown), number of tissues (Esophagus cancer, number 32): 13
Staining level 3+ (dark brown), number of tissues (Esophagus cancer, number 32): 11
Positive rate (Liver cancer): 85.00%
Sensitivity response rate (Liver cancer): 85.00%
Specificity (Liver cancer): 75.00%
Tumor tissues specifically bound (positive/total) (Liver cancer): 17/20
Staining level 0 (no visible staining), number of tissues (Liver cancer, number 20): 3
Staining level 1+ (light brown), number of tissues (Liver cancer, number 20): 11
Staining level 2+ (mid-brown), number of tissues (Liver cancer, number 20): 6
Positive rate (Lung cancer): 88.24%
Sensitivity response rate (Lung cancer): 88.24%
Specificity (Lung cancer): 91.67%
Tumor tissues specifically bound (positive/total) (Lung cancer): 60/68
Staining level 0 (no visible staining), number of tissues (Lung cancer, number 68): 8
Staining level 1+ (light brown), number of tissues (Lung cancer, number 68): 5
Staining level 2+ (mid-brown), number of tissues (Lung cancer, number 68): 23
Staining level 3+ (dark brown), number of tissues (Lung cancer, number 68): 32
Positive rate (Mammary cancer): 90.00%
Sensitivity response rate (Mammary cancer): 90.00%
Specificity (Mammary cancer): 77.50%
Staining level 0 (no visible staining), number of tissues (Mammary cancer, number 40): 4
Staining level 1+ (light brown), number of tissues (Mammary cancer, number 40): 6
Staining level 2+ (mid-brown), number of tissues (Mammary cancer, number 40): 11
Staining level 3+ (dark brown), number of tissues (Mammary cancer, number 40): 19
Positive rate (Mammary tissue): 22.50%
Staining level 0 (no visible staining), number of tissues (Mammary tissue, number 40): 31
Staining level 1+ (light brown), number of tissues (Mammary tissue, number 40): 5
Staining level 2+ (mid-brown), number of tissues (Mammary tissue, number 40): 2
Staining level 3+ (dark brown), number of tissues (Mammary tissue, number 40): 2
Positive rate (Normal cervix uteri): 0%
Staining level 0 (no visible staining), number of tissues (Normal cervix uteri, number 4): 4
Staining level 1+ (light brown), number of tissues (Normal cervix uteri, number 4): 0
Staining level 2+ (mid-brown), number of tissues (Normal cervix uteri, number 4): 0
Staining level 3+ (dark brown), number of tissues (Normal cervix uteri, number 4): 0
Positive rate (Normal colon): 16.00%
Staining level 0 (no visible staining), number of tissues (Normal colon, number 50): 42
Staining level 1+ (light brown), number of tissues (Normal colon, number 50): 5
Staining level 2+ (mid-brown), number of tissues (Normal colon, number 50): 2
Staining level 3+ (dark brown), number of tissues (Normal colon, number 50): 1
Positive rate (Normal esophagus): 18.75%
Staining level 0 (no visible staining), number of tissues (Normal esophagus, number 16): 13
Staining level 1+ (light brown), number of tissues (Normal esophagus, number 16): 3
Staining level 2+ (mid-brown), number of tissues (Normal esophagus, number 16): 0
Staining level 3+ (dark brown), number of tissues (Normal esophagus, number 16): 0
Positive rate (Normal liver): 25.00%
Staining level 0 (no visible staining), number of tissues (Normal liver, number 4): 3
Staining level 1+ (light brown), number of tissues (Normal liver, number 4): 0
Staining level 2+ (mid-brown), number of tissues (Normal liver, number 4): 1
Staining level 3+ (dark brown), number of tissues (Normal liver, number 4): 0
Positive rate (Normal lung): 8.33%
Staining level 0 (no visible staining), number of tissues (Normal lung, number 12): 10
Staining level 1+ (light brown), number of tissues (Normal lung, number 12): 2
Staining level 2+ (mid-brown), number of tissues (Normal lung, number 12): 0
Staining level 3+ (dark brown), number of tissues (Normal lung, number 12): 0
Positive rate (Normal ovary): 0%
Staining level 0 (no visible staining), number of tissues (Normal ovary, number 12): 12
Staining level 1+ (light brown), number of tissues (Normal ovary, number 12): 0
Staining level 2+ (mid-brown), number of tissues (Normal ovary, number 12): 0
Staining level 3+ (dark brown), number of tissues (Normal ovary, number 12): 0
Positive rate (Ovary cancer): 75%
Sensitivity response rate (Ovary cancer): 75.00%
Specificity (Ovary cancer): 100%
Staining level 0 (no visible staining), number of tissues (Ovary cancer, number 12): 3
Staining level 1+ (light brown), number of tissues (Ovary cancer, number 12): 2
Staining level 2+ (mid-brown), number of tissues (Ovary cancer, number 12): 3
Staining level 3+ (dark brown), number of tissues (Ovary cancer, number 12): 4
Tumor tissues specifically bound (positive/total) (breast cancer): 36/40
Positive rate (cervical cancer): 85.00%
Sensitivity response rate (cervical cancer): 85.00%
Specificity (cervical cancer): 100%
Tumor tissues specifically bound (positive/total) (cervical cancer): 17/20
Staining level 0 (no visible staining), number of tissues (cervical cancer, number 20): 3
Staining level 1+ (light brown), number of tissues (cervical cancer, number 20): 2
Staining level 2+ (mid-brown), number of tissues (cervical cancer, number 20): 5
Staining level 3+ (dark brown), number of tissues (cervical cancer, number 20): 10
Positive rate (gastric cancer): 78.26%
Sensitivity response rate (gastric cancer): 78.26%
Specificity (gastric cancer): 80.95%
Staining level 0 (no visible staining), number of tissues (gastric cancer, number 23): 5
Staining level 1+ (light brown), number of tissues (gastric cancer, number 23): 1
Staining level 2+ (mid-brown), number of tissues (gastric cancer, number 23): 7
Staining level 3+ (dark brown), number of tissues (gastric cancer, number 23): 10
Positive rate (normal stomach): 19.05%
Staining level 0 (no visible staining), number of tissues (normal stomach, number 21): 17
Staining level 1+ (light brown), number of tissues (normal stomach, number 21): 3
Staining level 2+ (mid-brown), number of tissues (normal stomach, number 21): 1
Staining level 3+ (dark brown), number of tissues (normal stomach, number 21): 0
Tumor tissues specifically bound (positive/total) (ovarian cancer): 9/12
Tumor tissues specifically bound (positive/total) (stomach cancer): 18/23
Substance: Metuzumab: human-mouse chimeric anti-CD147 IgG1, heavy chain SEQ ID NO: 4, light chain SEQ ID NO: 3, Mannose-5 glycoform lacking fucose and xylose
